{
  "source": "paper PMC9313131",
  "about": "(2022)",
  "binders": {"B1": {"name": "sBRAF, solubilized version of BRAF kinase domain (residues 423-723), V600 background (domain or fragment)", "chain": "QRERKSSSSSEDRNRMKTLGRRDSSDDWEIPDGQITVGQRIGSGSFGTVYKGKWHGDVAVKMLNVTAPTPQQLQAFKNEVGVLRKTRHVNILLFMGYSTKPQLAIVTQWCEGSSLYHHLHASETKFEMKKLIDIARQTARGMDYLHAKSIIHRDLKSNNIFLHEDNTVKIGDFGLATVKSRWSGSHQFEQLSGSILWMAPEVIRMQDSNPYSFQSDVYAFGIVLYELMTGQLPYSNINNRDQIIEMVGRGSLSPDLSKVRSNCPKRMKRLMAECLKKKRDERPSFPRILAEIEELARELSG"}, "B2": {"name": "CDC37 (cell division cycle 37), wild type, full-length (natural protein)", "chain": "MVDYSVWDHIEVSDDEDETHPNIDTASLFRWRHQARVERMEQFQKEKEELDRGCRECKRKVAECQRKLKELEVAEGGKAELERLQAEAQQLRKEERSWEQKLEEMRKKEKSMPWNVDTLSKDGFSKSMVNTKPEKTEEDSEEVREQKHKTFVEKYEKQIKHFGMLRRWDDSQKYLSDNVHLVCEETANYLVIWCIDLEVEEKCALMEQVAHQTIVMQFILELAKSLKVDPRACFRQFFTKIKTADRQYMEGFNDELEAFKERVRGRAKLRIEKAMKEYEEEERKKRLGPGGLDPVEVYESLPEELQKCFDVKDVQMLQDAISKMDPTDAKYHMQRCIDSGLWVPNSKASEAKEGEEAGPGDPLLEAVPKTGDEKDVSV"}},
  "key": {"[1]": {"molecular_target": "B2", "experiment": "ITC"}, "[2]": {"molecular_target": "sBRAF V600E (solubilized BRAF kinase domain, residues 423-723, V600E) (human, UniProt P15056 423-723, V600E)", "experiment": "ITC"}},
  "data": [
    {"binder": "B1", "values": [
      {"measurement": "Ka", "setting": "[1]", "value": 965000, "unit": "M⁻¹"}
    ]},
    {"binder": "B2", "values": [
      {"measurement": "Ka", "setting": "[2]", "value": "2.44e+06", "unit": "M⁻¹"}
    ]}
  ]
}
